± gives the half width of the 95% confidence interval.
Columns and labels:
[1] = folding stability dG unfold from trypsin proteolysis; higher = more stable
Method in brief: (§1)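 Designed mini-proteins with no cysteine and under 80 residues were kept only if AlphaFold2 dimer inter-PAE was above 15. In a PA-tagged cDNA display construct, they were digested with trypsin and chymotrypsin and then sequenced. K50 was inferred by Bayesian fitting of counts, and unfolding free energy was derived per protease or combined against a sequence-predicted unfolded-state K50 and a shared folded-state K50.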

[2] = folding stability dG unfold (combined trypsin and chymotrypsin); higher = more stable
Method in brief: as §1

[3] = folding stability dG unfold from chymotrypsin proteolysis; higher = more stable
Method in brief: as §1

| Sequence | folding stability dG unfold [1] [kcal/mol] | folding stability dG unfold [2] [kcal/mol] | folding stability dG unfold [3] [kcal/mol] |
| --- | --- | --- | --- |
| SAGGSAGGSAGGSPNWVWILITVKITFPIYKYDPDGKPLEPIEITIEFTVLIRIPPGDFSAGGSAGGSAGGS [r4_425_TrROS] | 3.63 ± 0.19 | 5.15 ± 0.27 | 5.34 ± 0.18 |
| SAGGSAGGSAGGSPSETLEVTLADGTRLTVTRNADGSLTVTVEPAPPPPVVVFKSPEELSAGGSAGGSAGGS [r4_120_TrROS_Hall] | 1.44 ± 0.025 | 1.14 ± 0.096 | 0.623 ± 0.14 |
| SAGGSAGGSAGGSPVAAKTLSKSTSLLPNGKVKTSTTTAFPTGETTTTTTTTPLSLTLTSAGGSAGGSAGGS [r10_1206_JUSTAS] | -0.654 ± 0.27 | -0.0493 ± 0.12 | 0.158 ± 0.17 |
| SAGGSAGGSAGGSPVSPKIVTTDPGPNVITTVYYSPEDGKVLSTSTTVVPPLPPGEILTSAGGSAGGSAGGS [r10_1051_JUSTAS] | 1.45 ± 0.085 | 1 ± 0.32 | 0.817 ± 0.21 |
| SAGGSAGGSAGGSQDLVKITIKLPGGEEKEITTPAEEIDKAIKELGIKKEDVEILEITEVSAGGSAGGSAGG [r7_211_JUSTAS] | 1.13 ± 0.093 | 1.34 ± 0.24 | 1.56 ± 0.051 |
| SAGGSAGGSAGGSSEPVVILVPVLPDAEEAVVDIGGHPALVKRFPDSPLAAITVPKELLSAGGSAGGSAGGS [r4_430_TrMRF] | 0.0985 ± 0.033 | -0.149 ± 0.066 | -0.581 ± 0.048 |
| SAGGSAGGSAGGSSKNRPLVIIDYPFYTSNPDYIVRATFINYLDENNNITEVKVEVLKASAGGSAGGSAGGS [r4_75_TrMRF] | 2.3 ± 0.22 | 2.59 ± 0.27 | 3.14 ± 0.095 |
| SAGGSAGGSAGGSSLASDPTVPPDEPRTVTVLEPEPGGRLRVVTYEETPAGRRPVSALLSAGGSAGGSAGGS [r10_288_JUSTAS] | -0.782 ± 0.95 | 0.336 ± 0.21 | 1.09 ± 0.26 |
| SAGGSAGGSAGGSSMAIKKVSEFLLRPENGELIKVTVYRKPGPETIVTVIGDKTYTFEPSAGGSAGGSAGGS [r4_114_JUSTAS] | -0.855 ± 0.25 | 0.0399 ± 0.1 | 0.336 ± 0.11 |
| SAGGSAGGSAGGSSMITVSTTSFPDGTRKVTITEPGTGKPLKTVDMPPSESVSAVKEKLSSAGGSAGGSAGG [r7_633_JUSTAS] | -0.012 ± 0.1 | -0.245 ± 0.2 | -0.67 ± 0.2 |
| SAGGSAGGSAGGSSMSSGPGRLSITTSTVDTGSFFKPGGEVEGSKTTTVTVTTLLPPSTPSAGGSAGGSAGG [r7_614_JUSTAS] | 0.21 ± 0.025 | 0.908 ± 0.054 | 1.27 ± 0.067 |
| SAGGSAGGSAGGSSSSTVPLPDDTTLTVHTGSSSYTVTTTSPDGTSTTTTVSPATVAAALSAGGSAGGSAGG [r11_1068_JUSTAS] | 0.255 ± 0.022 | 0.188 ± 0.077 | -0.0339 ± 0.1 |
| SAGGSAGGSAGGSSTSLIGNSTVTVDPVYVTDTGERGFVISADVPPSVSEAVVEAHVASSAGGSAGGSAGGS [r10_531_JUSTAS] | 0.869 ± 0.028 | 0.485 ± 0.05 | 0.0382 ± 0.022 |
| SAGGSAGGSAGGSSYQLKLEAEFLVGDSSGKLYKVKLTITVNEDGSISIDLEVLSVFDVSAGGSAGGSAGGS [r4_496_TrMRF] | 4.16 ± 0.2 | 5.41 ± 0.16 | 5.46 ± 0.11 |
| SAGGSAGGSAGGSTRDFLVKDPSNGQWYKVTATTDPAGAVTITFPETGEVVPLEGLVVSPSAGGSAGGSAGG [r11_301_JUSTAS] | 1.47 ± 0.046 | 1.43 ± 0.042 | 1.338 ± 0.012 |
| SAGGSAGGSAGGSVAYVAPDGDKLIVRVVRPDGSVEEKEFDSLEDLKTLPDDVPVAFLVSAGGSAGGSAGGS [r4_447_TrMRF] | 0.86 ± 0.034 | 0.516 ± 0.11 | -0.0498 ± 0.15 |
| SAGGSAGGSAGGSVPSVKLPKVGLKTDPVSSVLDFGEEKGDPVSVSIHLTLFLPDGTILLSAGGSAGGSAGG [r11_890_JUSTAS] | 0.161 ± 0.082 | 0.672 ± 0.17 | 0.881 ± 0.12 |
| SAGGSAGGSAGGSVTSTSSVGSSPGSTTTLTYPEKPLYVTVYTELKDDPTVVTTETFPLLSAGGSAGGSAGG [r7_509_JUSTAS] | 1.22 ± 0.19 | 1.56 ± 0.39 | 1.73 ± 0.066 |

| Sequence | folding stability dG unfold [1] [kcal/mol] | folding stability dG unfold [2] [kcal/mol] | folding stability dG unfold [3] [kcal/mol] |
| --- | --- | --- | --- |
| SAGGSAGGSAGGSYEVKEETEPKTGLKITTTTLPDGTIETTTINPATGEVTTTTSSPLESAGGSAGGSAGGS [r10_127_JUSTAS] | 1.34 ± 0.072 | 1.73 ± 0.15 | 1.89 ± 0.052 |
| SAGGSAGGSAGGSYIIVQFPADEIKEALPPGFEIKSIERSPKNGWVMVAIRYPKDGKPISAGGSAGGSAGGS [r4_435_TrROS] | 1.04 ± 0.038 | 0.818 ± 0.2 | 0.416 ± 0.17 |
| SAGGSAGGSAGGTITIPIYLDDKWITITRIELSPPDGKIKIEFTFNNRPREFDIPIPPGASAGGSAGGSAGG [r7_477_TrROS] | 1.9 ± 0.049 | 2.36 ± 0.11 | 2.71 ± 0.074 |
| SAGGSAGGSAGGTITLPNGAKVTRIEFLPDGTLRVEAVVETDGGPVTVEITLPVYPSLATSAGGSAGGSAGG [r7_37_TrMRF] | 2.19 ± 0.058 | 2.17 ± 0.037 | 2.13 ± 0.036 |
| SAGGSAGGSAGGTKTIPFPIEEIEVEHNPDNNYYHVTIRFPDNGKPITFMFPPGDTITISAGGSAGGSAGGS [r10_819_TrROS] | 0.812 ± 0.025 | 0.868 ± 0.12 | 0.836 ± 0.15 |
| SAGGSAGGSAGGTLEAIKELAKDMPPGDKNIPIKIPDGKPYTIDVEMDPDGKMEIDIEPSAGGSAGGSAGGS [r10_1017_TrROS] | 1.19 ± 0.041 | 0.466 ± 0.2 | -0.634 ± 0.86 |
| SAGGSAGGSAGGTLEFTFPGEGNLLAKVRIDLGESGNVRIDVYIYDGDTLLAKATFTLNLSAGGSAGGSAGG [r7_79_TrMRF] | 4.55 ± 0.12 | 5.48 ± 0.13 | 5.46 ± 0.11 |
| SAGGSAGGSAGGVEIPPDKPVAIEVTSPEGPTATLIFDPKDGTVTVIEGGKPVEVPAEDFSAGGSAGGSAGG [r7_937_TrMRF] | 0.0909 ± 0.059 | -0.377 ± 0.29 | -1.06 ± 0.53 |
| SAGGSAGGSAGGVEIVIMFPRGMPPEQFAKMIAKWLRRQGLPPNVKVDIKIIPIDPDDMSAGGSAGGSAGGS [r10_746_TrROS] | 2.82 ± 0.051 | 3.15 ± 0.18 | 3.35 ± 0.066 |
| SAGGSAGGSAGGVGKDKPVIIKIKIKRKVYGLNTPELIAEEEEEIVVVVHPDVNPEKIKPSAGGSAGGSAGG [r7_591_TrMRF] | 1.06 ± 0.074 | 1.83 ± 0.35 | 2.34 ± 0.056 |
| SAGGSAGGSAGGVKPGDFVLIKLTLTEKYYDPETGELIEEKEVELTILIPKGTSLEELKLSAGGSAGGSAGG [r7_591_TrROS_Hall] | 2.3 ± 0.17 | 2.17 ± 0.25 | 1.96 ± 0.089 |
| SAGGSAGGSAGGVVVVEVEIRLSDEEIEALKDLGISAEDLTLRVTVVVELPPPPPAEEESAGGSAGGSAGGS [r10_1149_TrROS_Hall] | 2.23 ± 0.2 | 1.5 ± 0.21 | 1.04 ± 0.13 |
| SAGGSAGGSAGGWDVEIEPFPDGFIFITAEGPNGRKLVIVVMVVPEGKLMYMIVPLDDLSAGGSAGGSAGGS [r10_140_TrROS] | 2.35 ± 0.095 | 3.34 ± 0.19 | 3.71 ± 0.097 |
| SAGGSAGGSAGGWIRNKDGKPVKLEIYPFPVEMWMYRKKPDGGWEPHPMRMPFTFIRITPSAGGSAGGSAGG [r7_90_TrROS] | 1.59 ± 0.049 | 1.65 ± 0.11 | 1.55 ± 0.11 |
| SAGGSAGGSAGGWYIYFPNHYYPIKKITINPGGNIEIEFPNGNERTFDNVSIMPPGQEISAGGSAGGSAGGS [r10_1151_TrROS] | 0.178 ± 0.047 | 0.219 ± 0.097 | 0.105 ± 0.14 |
| SAGGSAGGSAGGYFIRINNGRTFPFPSPEDAEEIVKTIARPFGHPDMTIEIYRMPPEQFPSAGGSAGGSAGG [r7_839_TrROS] | -0.0675 ± 0.22 | 0.0194 ± 0.18 | -0.1 ± 0.24 |
| SAGGSAGGSAGGYIEIVFAHPDPEPGYKYAMVMEIQMDPPGNMEMNIRVIKDPEDAKEAFSAGGSAGGSAGG [r11_792_TrROS] | 1.35 ± 0.12 | 1.41 ± 0.19 | 1.43 ± 0.067 |
| SAGGSAGGSAGHMVKVKITKSKGGSSLPLEEKEIELDIDEEKLEELKEEAKKKGYTVEIESAGGSAGGSAGG [r17_18_JUSTAS] | 0.0424 ± 0.11 | -0.0397 ± 0.26 | 0.0362 ± 0.15 |
